Results: patent US20220089698A1 (published 2022)

Assays:
HIV gp120 Bal = HIV gp120 Bal (HIV); experiment: single-point ELISA; further: test concentration or dose not given here
HIV gp120 CAAN = HIV gp120 CAAN (HIV); experiment: single-point ELISA; further: test concentration or dose not given here

| Binder | ELISA (A450) (HIV gp120 Bal) | ELISA (A450) (HIV gp120 CAAN) |
| --- | --- | --- |
| 1.31.34-1 (antibody, human IgG1, kappa) heavy: QVQLVQSGAEVTKPGASVRVSCEASGYNIRDYFIHWWRQAPGQGLQWVGWINPKTGQPNNPRQFQGRVSLTRHASWDFDTFSFYMDLKALRSDDTATYFCARQRSDYWDFDVWGSGTQVTVSSASTKGPSVFPLAPSSKSTSGGTAALGCLVKDYFPEPVTVSWNSGALTSGVHTFPAVLQSSGLYSLSSVVTVPSSSLGTQTYICNVNHKPSNTKVDKKVEPKSCDKTHTCPPCPAPELLAGPDVFLFPPKPKDTLMISRTPEVTCVVVDVSHEDPEVKFNWYVDGVEVHNAKTKPREEQYNSTYRVVSVLTVLHQDWLNGKEYKCKVSNKALPLPEEKTISKAKGQPREPQVYTLPPSREEMTKNQVSLTCLVKGFYPSDIAVEWESNGQPENNYKTTPPVLDSDGSFFLYSKLTVDKSRWQQGNVFSCSVLHEALHSHYTQKSLSLSPGK light: DIQMTQSPSSLSASVGDTVTITCQANGYLNWYQQRRGKAPKLLIYDGSNLERGVPSRFSGRRWGQEYTLTISSLQPEDIATYFCQVYEFVTPGTRLDIKRTVAAPSVFIFPPSDEQLKSGTASVVCLLNNFYPREAKVQWKVDNALQSGNSQESVTEQDSKDSTYSLSSTLTLSKADYEKHKVYACEVTHQGLSSPVTKSFNRGEC | 0.76 | 0.86 |
| 1.32.34-1 (antibody, human IgG1, kappa) heavy: QVQLVQSGAEVTKPGASVRVSCEASGYNIRDYFIHWWRQAPGQGLQWVGWINPKTGQPNNPRQFQGRVSLTRHASWDFDTFSFYMDLKALRSDDTAVYFCARQRTDYWDFDVWGSGTQVTVSSASTKGPSVFPLAPSSKSTSGGTAALGCLVKDYFPEPVTVSWNSGALTSGVHTFPAVLQSSGLYSLSSVVTVPSSSLGTQTYICNVNHKPSNTKVDKKVEPKSCDKTHTCPPCPAPELLAGPDVFLFPPKPKDTLMISRTPEVTCVVVDVSHEDPEVKFNWYVDGVEVHNAKTKPREEQYNSTYRVVSVLTVLHQDWLNGKEYKCKVSNKALPLPEEKTISKAKGQPREPQVYTLPPSREEMTKNQVSLTCLVKGFYPSDIAVEWESNGQPENNYKTTPPVLDSDGSFFLYSKLTVDKSRWQQGNVFSCSVLHEALHSHYTQKSLSLSPGK light: DIQMTQSPSSLSASVGDTVTITCQANGYLNWYQQRRGKAPKLLIYDGSNLERGVPSRFSGRRWGQEYTLTISSLQPEDIATYFCQVYEFVTPGTRLDIKRTVAAPSVFIFPPSDEQLKSGTASVVCLLNNFYPREAKVQWKVDNALQSGNSQESVTEQDSKDSTYSLSSTLTLSKADYEKHKVYACEVTHQGLSSPVTKSFNRGEC | 0.81 | 0.86 |
| 1.33.34-1 (antibody, human IgG1, kappa) heavy: QVQLVQSGAEVKKPGASVRVSCKASGYNIRDYFIHWWRQAPGQGLQWVGWINPKTGQPNNPRQFQGRVTLTRHASWDFDTFSFYMDLKALRSDDTATYFCARQRSDYWDFDVWGSGTQVTVSSASTKGPSVFPLAPSSKSTSGGTAALGCLVKDYFPEPVTVSWNSGALTSGVHTFPAVLQSSGLYSLSSVVTVPSSSLGTQTYICNVNHKPSNTKVDKKVEPKSCDKTHTCPPCPAPELLAGPDVFLFPPKPKDTLMISRTPEVTCVVVDVSHEDPEVKFNWYVDGVEVHNAKTKPREEQYNSTYRVVSVLTVLHQDWLNGKEYKCKVSNKALPLPEEKTISKAKGQPREPQVYTLPPSREEMTKNQVSLTCLVKGFYPSDIAVEWESNGQPENNYKTTPPVLDSDGSFFLYSKLTVDKSRWQQGNVFSCSVLHEALHSHYTQKSLSLSPGK light: DIQMTQSPSSLSASVGDTVTITCQANGYLNWYQQRRGKAPKLLIYDGSNLERGVPSRFSGRRWGQEYTLTISSLQPEDIATYFCQVYEFVTPGTRLDIKRTVAAPSVFIFPPSDEQLKSGTASVVCLLNNFYPREAKVQWKVDNALQSGNSQESVTEQDSKDSTYSLSSTLTLSKADYEKHKVYACEVTHQGLSSPVTKSFNRGEC | 0.95 | 0.95 |
| 1.34.34-1 (antibody, human IgG1, kappa) heavy: QVQLVQSGAEVKKPGASVRVSCKASGYNIRDYFIHWWRQAPGQGLQWVGWINPKTGQPNNPRQFQGRVTLTRHASWDFDTFSFYMDLKALRSDDTAVYFCARQRTDYWDFDVWGSGTQVTVSSASTKGPSVFPLAPSSKSTSGGTAALGCLVKDYFPEPVTVSWNSGALTSGVHTFPAVLQSSGLYSLSSVVTVPSSSLGTQTYICNVNHKPSNTKVDKKVEPKSCDKTHTCPPCPAPELLAGPDVFLFPPKPKDTLMISRTPEVTCVVVDVSHEDPEVKFNWYVDGVEVHNAKTKPREEQYNSTYRVVSVLTVLHQDWLNGKEYKCKVSNKALPLPEEKTISKAKGQPREPQVYTLPPSREEMTKNQVSLTCLVKGFYPSDIAVEWESNGQPENNYKTTPPVLDSDGSFFLYSKLTVDKSRWQQGNVFSCSVLHEALHSHYTQKSLSLSPGK light: DIQMTQSPSSLSASVGDTVTITCQANGYLNWYQQRRGKAPKLLIYDGSNLERGVPSRFSGRRWGQEYTLTISSLQPEDIATYFCQVYEFVTPGTRLDIKRTVAAPSVFIFPPSDEQLKSGTASVVCLLNNFYPREAKVQWKVDNALQSGNSQESVTEQDSKDSTYSLSSTLTLSKADYEKHKVYACEVTHQGLSSPVTKSFNRGEC | 0.89 | 0.88 |
| 1.35.34-1 (antibody, human IgG1, kappa) heavy: QVQLVQSGAEVKKPGASVRVSCKASGYNIRDYFMHWWRQAPGQGLQWVGWINPKTGQPNNPRQFQGRVTMTRHASWDFDTFSFYMDLSRLRSDDTATYFCARQRTDYWDFDVWGQGTMVTVSSASTKGPSVFPLAPSSKSTSGGTAALGCLVKDYFPEPVTVSWNSGALTSGVHTFPAVLQSSGLYSLSSVVTVPSSSLGTQTYICNVNHKPSNTKVDKKVEPKSCDKTHTCPPCPAPELLAGPDVFLFPPKPKDTLMISRTPEVTCVVVDVSHEDPEVKFNWYVDGVEVHNAKTKPREEQYNSTYRVVSVLTVLHQDWLNGKEYKCKVSNKALPLPEEKTISKAKGQPREPQVYTLPPSREEMTKNQVSLTCLVKGFYPSDIAVEWESNGQPENNYKTTPPVLDSDGSFFLYSKLTVDKSRWQQGNVFSCSVLHEALHSHYTQKSLSLSPGK light: DIQMTQSPSSLSASVGDTVTITCQANGYLNWYQQRRGKAPKLLIYDGSNLERGVPSRFSGRRWGQEYTLTISSLQPEDIATYFCQVYEFVTPGTRLDIKRTVAAPSVFIFPPSDEQLKSGTASVVCLLNNFYPREAKVQWKVDNALQSGNSQESVTEQDSKDSTYSLSSTLTLSKADYEKHKVYACEVTHQGLSSPVTKSFNRGEC | 1 | 0.85 |
| 1.36.34-1 (antibody, human IgG1, kappa) heavy: QVQLVQSGAEVKKPGASVRVSCKASGYNIRDYFMHWWRQAPGQGLQWVGWINPKTGQPNNPRQFQGRVTMTRHASWDFDTFSAYMDLSRLRSDDTATYFCARQRTDYWDFDVWGQGTMVTVSSASTKGPSVFPLAPSSKSTSGGTAALGCLVKDYFPEPVTVSWNSGALTSGVHTFPAVLQSSGLYSLSSVVTVPSSSLGTQTYICNVNHKPSNTKVDKKVEPKSCDKTHTCPPCPAPELLAGPDVFLFPPKPKDTLMISRTPEVTCVVVDVSHEDPEVKFNWYVDGVEVHNAKTKPREEQYNSTYRVVSVLTVLHQDWLNGKEYKCKVSNKALPLPEEKTISKAKGQPREPQVYTLPPSREEMTKNQVSLTCLVKGFYPSDIAVEWESNGQPENNYKTTPPVLDSDGSFFLYSKLTVDKSRWQQGNVFSCSVLHEALHSHYTQKSLSLSPGK light: DIQMTQSPSSLSASVGDTVTITCQANGYLNWYQQRRGKAPKLLIYDGSNLERGVPSRFSGRRWGQEYTLTISSLQPEDIATYFCQVYEFVTPGTRLDIKRTVAAPSVFIFPPSDEQLKSGTASVVCLLNNFYPREAKVQWKVDNALQSGNSQESVTEQDSKDSTYSLSSTLTLSKADYEKHKVYACEVTHQGLSSPVTKSFNRGEC | 1.01 | 0.43 |
| 1.1.35-1 (antibody, human IgG1, kappa, V domains shown) VH: QVQLLQSGAAVTKPGASVRVSCEASGYNIRDYFIHWWRQAPGQGLQWVGWINPKTGQPNNPRQFQGRVSLTRHASWDFDTFSFYMDLKALRSDDTAVYFCARQRSDYWDFDVWGSGTQVTVSS VL: DIQMTQSPSSLSASVGDRVTITCQANGYLNWYQQKPGKAPKLLIYDGSNLETGVPSRFSGSRWGQEYTLTISSLQPEDIATYFCQVYEFVGPGTNLDIKR | 0.96 | 0.75 |
| 1.31.35-1 (antibody, human IgG1, kappa, V domains shown) VH: QVQLVQSGAEVTKPGASVRVSCEASGYNIRDYFIHWWRQAPGQGLQWVGWINPKTGQPNNPRQFQGRVSLTRHASWDFDTFSFYMDLKALRSDDTATYFCARQRSDYWDFDVWGSGTQVTVSS VL: DIQMTQSPSSLSASVGDRVTITCQANGYLNWYQQKPGKAPKLLIYDGSNLETGVPSRFSGSRWGQEYTLTISSLQPEDIATYFCQVYEFVGPGTNLDIKR | 0.9 | 0.77 |
| 1.32.35-1 (antibody, human IgG1, kappa, V domains shown) VH: QVQLVQSGAEVTKPGASVRVSCEASGYNIRDYFIHWWRQAPGQGLQWVGWINPKTGQPNNPRQFQGRVSLTRHASWDFDTFSFYMDLKALRSDDTAVYFCARQRTDYWDFDVWGSGTQVTVSS VL: DIQMTQSPSSLSASVGDRVTITCQANGYLNWYQQKPGKAPKLLIYDGSNLETGVPSRFSGSRWGQEYTLTISSLQPEDIATYFCQVYEFVGPGTNLDIKR | 0.89 | 0.59 |
| 1.33.35-1 (antibody, human IgG1, kappa, V domains shown) VH: QVQLVQSGAEVKKPGASVRVSCKASGYNIRDYFIHWWRQAPGQGLQWVGWINPKTGQPNNPRQFQGRVTLTRHASWDFDTFSFYMDLKALRSDDTATYFCARQRSDYWDFDVWGSGTQVTVSS VL: DIQMTQSPSSLSASVGDRVTITCQANGYLNWYQQKPGKAPKLLIYDGSNLETGVPSRFSGSRWGQEYTLTISSLQPEDIATYFCQVYEFVGPGTNLDIKR | 1.03 | 0.81 |
| 1.34.35-1 (antibody, human IgG1, kappa, V domains shown) VH: QVQLVQSGAEVKKPGASVRVSCKASGYNIRDYFIHWWRQAPGQGLQWVGWINPKTGQPNNPRQFQGRVTLTRHASWDFDTFSFYMDLKALRSDDTAVYFCARQRTDYWDFDVWGSGTQVTVSS VL: DIQMTQSPSSLSASVGDRVTITCQANGYLNWYQQKPGKAPKLLIYDGSNLETGVPSRFSGSRWGQEYTLTISSLQPEDIATYFCQVYEFVGPGTNLDIKR | 0.94 | 0.77 |
| 1.35.35-1 (antibody, human IgG1, kappa, V domains shown) VH: QVQLVQSGAEVKKPGASVRVSCKASGYNIRDYFMHWWRQAPGQGLQWVGWINPKTGQPNNPRQFQGRVTMTRHASWDFDTFSFYMDLSRLRSDDTATYFCARQRTDYWDFDVWGQGTMVTVSS VL: DIQMTQSPSSLSASVGDRVTITCQANGYLNWYQQKPGKAPKLLIYDGSNLETGVPSRFSGSRWGQEYTLTISSLQPEDIATYFCQVYEFVGPGTNLDIKR | 0.88 | 0.67 |
| 1.36.35-1 (antibody, human IgG1, kappa, V domains shown) VH: QVQLVQSGAEVKKPGASVRVSCKASGYNIRDYFMHWWRQAPGQGLQWVGWINPKTGQPNNPRQFQGRVTMTRHASWDFDTFSAYMDLSRLRSDDTATYFCARQRTDYWDFDVWGQGTMVTVSS VL: DIQMTQSPSSLSASVGDRVTITCQANGYLNWYQQKPGKAPKLLIYDGSNLETGVPSRFSGSRWGQEYTLTISSLQPEDIATYFCQVYEFVGPGTNLDIKR | 0.89 | 0.36 |
